Source: the Human Domainome abundance scans (Beltran et al. 2025)
± gives the uncertainty stated by the source.

B1: TGF-beta-activated kinase 1 and MAP3K7-binding protein 3, residues 12 to 50; numbered along this chain, Q8N5C8 (parent)
chain: VLHDLRQRFPEIPEGVVSQCMLQNNNNLEACCRALSQES

Variants of: B1
Assay: abundance fitness (aPCA) (normalised: wild type 0, dead -1); higher = more abundant; growth selection in yeast, the domain comes from the species named
Details: Homo sapiens
Work on MLHDLRQRFPEIPEGVVSQCMLQNNNNLEACCRALSQES [V1M] yielded an abundance fitness of 0.19 ± 0.065.
Work on GLHDLRQRFPEIPEGVVSQCMLQNNNNLEACCRALSQES [V1G] yielded an abundance fitness of -0.193 ± 0.056.
ALHDLRQRFPEIPEGVVSQCMLQNNNNLEACCRALSQES [V1A] showed an abundance fitness of -0.38 ± 0.085.
For RLHDLRQRFPEIPEGVVSQCMLQNNNNLEACCRALSQES [V1R], the abundance fitness was -0.291 ± 0.4.
With DLHDLRQRFPEIPEGVVSQCMLQNNNNLEACCRALSQES [V1D] the abundance fitness was 0.022 ± 0.13.
QLHDLRQRFPEIPEGVVSQCMLQNNNNLEACCRALSQES [V1Q] showed an abundance fitness of 0.235 ± 0.29.
FLHDLRQRFPEIPEGVVSQCMLQNNNNLEACCRALSQES [V1F] gave an abundance fitness of -0.228 ± 0.13.
NLHDLRQRFPEIPEGVVSQCMLQNNNNLEACCRALSQES [V1N] gave an abundance fitness of 0.252 ± 0.17.
Variant LLHDLRQRFPEIPEGVVSQCMLQNNNNLEACCRALSQES [V1L] has an abundance fitness of 0.311 ± 0.09.
WLHDLRQRFPEIPEGVVSQCMLQNNNNLEACCRALSQES [V1W] showed an abundance fitness of -0.361 ± 0.14.
SLHDLRQRFPEIPEGVVSQCMLQNNNNLEACCRALSQES [V1S] gave an abundance fitness of -0.048 ± 0.12.
ELHDLRQRFPEIPEGVVSQCMLQNNNNLEACCRALSQES [V1E] showed an abundance fitness of 0.043 ± 0.055.
In the case of VLHDLVQRFPEIPEGVVSQCMLQNNNNLEACCRALSQES [R6V], the abundance fitness is reported as -0.211 ± 0.049.
VLHDLHQRFPEIPEGVVSQCMLQNNNNLEACCRALSQES [R6H] showed an abundance fitness of -0.036 ± 0.15.
With VLHDLGQRFPEIPEGVVSQCMLQNNNNLEACCRALSQES [R6G] the abundance fitness was -0.486 ± 0.041.
With VLHDLKQRFPEIPEGVVSQCMLQNNNNLEACCRALSQES [R6K] the abundance fitness was 0.11 ± 0.067.
In the case of VLHDLLQRFPEIPEGVVSQCMLQNNNNLEACCRALSQES [R6L], the abundance fitness is reported as 0.056 ± 0.052.
Variant VLHDLEQRFPEIPEGVVSQCMLQNNNNLEACCRALSQES [R6E] has an abundance fitness of -0.212 ± 0.078.
VLHDLWQRFPEIPEGVVSQCMLQNNNNLEACCRALSQES [R6W] showed an abundance fitness of -0.809 ± 0.14.
With VLHDLTQRFPEIPEGVVSQCMLQNNNNLEACCRALSQES [R6T] the abundance fitness was -0.375 ± 0.098.
VLHDLQQRFPEIPEGVVSQCMLQNNNNLEACCRALSQES [R6Q] gave an abundance fitness of -0.19 ± 0.078.
Variant VLHDLMQRFPEIPEGVVSQCMLQNNNNLEACCRALSQES [R6M] has an abundance fitness of 0.142 ± 0.056.
Work on VLHDLAQRFPEIPEGVVSQCMLQNNNNLEACCRALSQES [R6A] yielded an abundance fitness of -0.279 ± 0.045.
Variant VLHDLPQRFPEIPEGVVSQCMLQNNNNLEACCRALSQES [R6P] has an abundance fitness of -0.91 ± 0.21.
In the case of VLHDLCQRFPEIPEGVVSQCMLQNNNNLEACCRALSQES [R6C], the abundance fitness is reported as 0.107 ± 0.053.
In the case of VLHDLSQRFPEIPEGVVSQCMLQNNNNLEACCRALSQES [R6S], the abundance fitness is reported as -0.319 ± 0.074.
VLHDLRQRGPEIPEGVVSQCMLQNNNNLEACCRALSQES [F9G] showed an abundance fitness of -0.818 ± 0.061.
For VLHDLRQRDPEIPEGVVSQCMLQNNNNLEACCRALSQES [F9D], the abundance fitness was -0.616 ± 0.16.
Work on VLHDLRQRMPEIPEGVVSQCMLQNNNNLEACCRALSQES [F9M] yielded an abundance fitness of -0.428 ± 0.092.
Variant VLHDLRQRIPEIPEGVVSQCMLQNNNNLEACCRALSQES [F9I] has an abundance fitness of -0.784 ± 0.33.
VLHDLRQRVPEIPEGVVSQCMLQNNNNLEACCRALSQES [F9V] gave an abundance fitness of -0.865 ± 0.087.
Work on VLHDLRQREPEIPEGVVSQCMLQNNNNLEACCRALSQES [F9E] yielded an abundance fitness of -0.682 ± 0.057.
VLHDLRQRSPEIPEGVVSQCMLQNNNNLEACCRALSQES [F9S] gave an abundance fitness of -0.597 ± 0.096.
VLHDLRQRTPEIPEGVVSQCMLQNNNNLEACCRALSQES [F9T] gave an abundance fitness of -0.798 ± 0.15.
Variant VLHDLRQRCPEIPEGVVSQCMLQNNNNLEACCRALSQES [F9C] has an abundance fitness of -0.65 ± 0.067.
Work on VLHDLRQRKPEIPEGVVSQCMLQNNNNLEACCRALSQES [F9K] yielded an abundance fitness of -0.544 ± 0.13.
For VLHDLRQRRPEIPEGVVSQCMLQNNNNLEACCRALSQES [F9R], the abundance fitness was -0.751 ± 0.057.
Variant VLHDLRQRWPEIPEGVVSQCMLQNNNNLEACCRALSQES [F9W] has an abundance fitness of -0.964 ± 0.16.
Work on VLHDLRQRNPEIPEGVVSQCMLQNNNNLEACCRALSQES [F9N] yielded an abundance fitness of -0.559 ± 0.17.
VLHDLRQRLPEIPEGVVSQCMLQNNNNLEACCRALSQES [F9L] gave an abundance fitness of -0.935 ± 0.093.
VLHDLRQAFPEIPEGVVSQCMLQNNNNLEACCRALSQES [R8A] gave an abundance fitness of -0.544 ± 0.066.
For VLHDLRQCFPEIPEGVVSQCMLQNNNNLEACCRALSQES [R8C], the abundance fitness was -0.987 ± 0.19.
In the case of VLHDLRQGFPEIPEGVVSQCMLQNNNNLEACCRALSQES [R8G], the abundance fitness is reported as -0.944 ± 0.065.
Work on VLHDLRQDFPEIPEGVVSQCMLQNNNNLEACCRALSQES [R8D] yielded an abundance fitness of -0.722 ± 0.27.
VLHDLRQTFPEIPEGVVSQCMLQNNNNLEACCRALSQES [R8T] gave an abundance fitness of -0.877 ± 0.21.
In the case of VLHDLRQIFPEIPEGVVSQCMLQNNNNLEACCRALSQES [R8I], the abundance fitness is reported as -0.403 ± 0.069.
With VLHDLRQPFPEIPEGVVSQCMLQNNNNLEACCRALSQES [R8P] the abundance fitness was -1.08 ± 0.24.
VLHDLRQHFPEIPEGVVSQCMLQNNNNLEACCRALSQES [R8H] gave an abundance fitness of -0.907 ± 0.4.
VLHDLRQWFPEIPEGVVSQCMLQNNNNLEACCRALSQES [R8W] gave an abundance fitness of -0.975 ± 0.14.
VLHDLRQMFPEIPEGVVSQCMLQNNNNLEACCRALSQES [R8M] gave an abundance fitness of 0.071 ± 0.092.
For VLHDLRQLFPEIPEGVVSQCMLQNNNNLEACCRALSQES [R8L], the abundance fitness was -0.168 ± 0.052.
Variant VLHDLRQKFPEIPEGVVSQCMLQNNNNLEACCRALSQES [R8K] has an abundance fitness of 0.054 ± 0.095.
Work on VLHDLRQEFPEIPEGVVSQCMLQNNNNLEACCRALSQES [R8E] yielded an abundance fitness of -0.469 ± 0.077.
Work on VLHDLRQQFPEIPEGVVSQCMLQNNNNLEACCRALSQES [R8Q] yielded an abundance fitness of -0.73 ± 0.29.
In the case of VLHKLRQRFPEIPEGVVSQCMLQNNNNLEACCRALSQES [D4K], the abundance fitness is reported as 0.109 ± 0.049.
Work on VLHMLRQRFPEIPEGVVSQCMLQNNNNLEACCRALSQES [D4M] yielded an abundance fitness of -0.039 ± 0.14.
VLHVLRQRFPEIPEGVVSQCMLQNNNNLEACCRALSQES [D4V] gave an abundance fitness of 0.127 ± 0.043.
With VLHPLRQRFPEIPEGVVSQCMLQNNNNLEACCRALSQES [D4P] the abundance fitness was -0.838 ± 0.14.
Work on VLHSLRQRFPEIPEGVVSQCMLQNNNNLEACCRALSQES [D4S] yielded an abundance fitness of -0.118 ± 0.042.
VLHFLRQRFPEIPEGVVSQCMLQNNNNLEACCRALSQES [D4F] gave an abundance fitness of 0.164 ± 0.097.
With VLHNLRQRFPEIPEGVVSQCMLQNNNNLEACCRALSQES [D4N] the abundance fitness was -0.075 ± 0.068.
With VLHCLRQRFPEIPEGVVSQCMLQNNNNLEACCRALSQES [D4C] the abundance fitness was -0.053 ± 0.054.
Variant VLHLLRQRFPEIPEGVVSQCMLQNNNNLEACCRALSQES [D4L] has an abundance fitness of 0.116 ± 0.045.
VLHWLRQRFPEIPEGVVSQCMLQNNNNLEACCRALSQES [D4W] showed an abundance fitness of 0.017 ± 0.049.
